# According to patent US4286063A, “Method for producing thrombolytic preparation” (The Green Cross Corporation, priority 1978, dated 1981):
# Legend:
# urokinase [1] = assay: Effect of heat stabilizers on residual urokinase activity after heat treatment; assay type: physicochemical; details: for residual urokinase activity in the presence of heat stabilizer: after heat treatment, concentrations of Table 2
# urokinase [2] = assay: Residual urokinase activity and molecular weight distribution after dialysis against outer liquids of different pH; assay type: physicochemical, human urine; details: 40 hours at 4° C.
# Protocol: The interrelationship between pH and the ratio of residual urokinase activity as well as the molecular weight distribution:
# The resulting solution was dialyzed for 40 hours at 4° C. against an outer liquid of water, a 1 M sodium acetate buffer solution of pH 3.0, 4.0, 5.0, 6.0, 7.0, 8.0, 9.0, 11.0 or 12.0 or a 1/15 M phosphate buffer solution, while renewing the outer liquid at a time interval of 8 hours. After completion of the dialysis, the ratio of residual activity was assayed and molecular weight distribution was roughly evaluated by the molecular sieving by means of gel filtration technique.
# urokinase [3] = assay: Stability of urokinase in heat treatment (60° C., 10 hours), dependence on pH; assay type: physicochemical
# Protocol: Dependence of the stability of urokinase in heat treatment on pH:
# A phosphate buffer solution was added in various concentrations to an aqueous urokinase solution [specific activity, 15,000 IU/mg; protein concentration, 0.02% (W/V)] to prepare samples of urokinase solutions having pH of 4, 5, 6, 7, 8, 9 and 10. Each sample was heated at 60° C. for 10 hours and the residual activity was compared. After the heat treatment, the heat stabilizer was removed by dialysis and the urokinase activity was assayed to calculate the ratio of residual activity by taking the specific activity before heating as 100%.
# [4] = heat stabilizer concentration 5%
# [5] = heat stabilizer concentration 10%
# [6] = heat stabilizer concentration 15%
# [7] = heat stabilizer concentration 0.1 M
molecule,measurement,setting,value
"OC[C@H]1O[C@@](CO)(O[C@H]2O[C@H](CO)[C@@H](O)[C@H](O)[C@H]2O)[C@@H](O)[C@@H]1O [Sucrose, sucrose]",residual urokinase activity in the presence of heat stabilizer,urokinase [1],75-78%
same,Ratio of residual urokinase activity,urokinase [1]; [4],75%
same,Ratio of residual urokinase activity,urokinase [1]; [5],77%
same,Ratio of residual urokinase activity,urokinase [1]; [6],78%
Gelatin,residual urokinase activity in the presence of heat stabilizer,urokinase [1],88-100%
same,Ratio of residual urokinase activity,urokinase [1]; heat stabilizer concentration 0.5%,88%
same,Ratio of residual urokinase activity,urokinase [1]; heat stabilizer concentration 1.0%,91%
same,Ratio of residual urokinase activity,urokinase [1]; heat stabilizer concentration 3.0%,89%
"N=C(N)NCCC[C@H](N)C(=O)O [Arginine, arginine]",residual urokinase activity in the presence of heat stabilizer,urokinase [1],79%
same,Ratio of residual urokinase activity,urokinase [1]; [7],79%
"NCC(=O)O [Glycine, glycine]",residual urokinase activity in the presence of heat stabilizer,urokinase [1],65-75%
same,Ratio of residual urokinase activity,urokinase [1]; [4],65%
same,Ratio of residual urokinase activity,urokinase [1]; [5],70%
same,Ratio of residual urokinase activity,urokinase [1]; [6],75%
"OC[C@@H](O)[C@@H](O)[C@H](O)[C@H](O)CO [Mannit, mannitol]",residual urokinase activity in the presence of heat stabilizer,urokinase [1],78%
same,Ratio of residual urokinase activity,urokinase [1]; [4],73%
same,Ratio of residual urokinase activity,urokinase [1]; [5],73%
"[Cl-].[Na+] [Sodium chloride, sodium chloride]",residual urokinase activity in the presence of heat stabilizer,urokinase [1],71-75%
same,Ratio of residual urokinase activity,urokinase [1]; heat stabilizer concentration 0.15 M,71%
same,Ratio of residual urokinase activity,urokinase [1]; heat stabilizer concentration 0.3 M,75%
O=C(O)CN(CCN(CC(=O)O)CC(=O)O)CC(=O)O [EDTA],Ratio of residual urokinase activity,urokinase [1]; heat stabilizer concentration 0.1%,23%
urokinase,Ratio of residual urokinase activity,"urokinase [1]; heat stabilizer absent, pH 6.8 with 0.1 M phosphate buffer",65%
same,Ratio of residual urokinase activity,"urokinase [1]; no phosphate buffer, pH not adjusted",0%
same,Activity after dialysis,"urokinase [2]; Run 1, pH of outer liquid 3","6,324 IU"
same,Ratio of residual activity,"urokinase [2]; Run 1, pH of outer liquid 3",65
same,Activity after dialysis,"urokinase [2]; Run 2, pH of outer liquid 4","6,314 IU"
same,Ratio of residual activity,"urokinase [2]; Run 2, pH of outer liquid 4",64
same,Activity after dialysis,"urokinase [2]; Run 3, pH of outer liquid 5","6,426 IU"
same,Ratio of residual activity,"urokinase [2]; Run 3, pH of outer liquid 5",66
same,Activity after dialysis,"urokinase [2]; Run 4, pH of outer liquid 6","7,252 IU"
same,Ratio of residual activity,"urokinase [2]; Run 4, pH of outer liquid 6",74
same,Activity after dialysis,"urokinase [2]; Run 5, pH of outer liquid 7","8,296 IU"
same,Ratio of residual activity,"urokinase [2]; Run 5, pH of outer liquid 7",85
same,Activity after dialysis,"urokinase [2]; Run 6, pH of outer liquid 8","10,290 IU"
same,Ratio of residual activity,"urokinase [2]; Run 6, pH of outer liquid 8",105
same,Activity after dialysis,"urokinase [2]; Run 7, pH of outer liquid 9","9,672 IU"
same,Ratio of residual activity,"urokinase [2]; Run 7, pH of outer liquid 9",99
same,Activity after dialysis,"urokinase [2]; Run 8, pH of outer liquid 11","9,016 IU"
same,Ratio of residual activity,"urokinase [2]; Run 8, pH of outer liquid 11",92
same,Activity after dialysis,"urokinase [2]; Run 9, pH of outer liquid 12","8,722 IU"
same,Ratio of residual activity,"urokinase [2]; Run 9, pH of outer liquid 12",89
same,Activity after dialysis,urokinase [2]; outer liquid H2O,"8,514 IU"
same,Ratio of residual activity,urokinase [2]; outer liquid H2O,86
same,ratio of residual activity after heat treatment,"urokinase [3]; pH 7, phosphate buffer",52%
same,ratio of residual activity after heat treatment,"urokinase [3]; pH 8, phosphate buffer",65%
same,ratio of residual activity after heat treatment,"urokinase [3]; pH 9, phosphate buffer",50%
"NCCCC[C@H](N)C(=O)O [Lysine, lysine]",residual urokinase activity in the presence of heat stabilizer,urokinase [1],78%
same,Ratio of residual urokinase activity,urokinase [1]; [7],78%
